Laboratory results from US10919953 (dated 2021).
Residue numbers refer to the chain shown, from its start. Like-named read-outs stand apart in the source and are kept apart here. One block for each binder: values may come before it.

Columns and labels:
FcgRIIb [1] = target: T1, FcgRIIb (human, UniProt P31994); assay: SPR
T1 chain: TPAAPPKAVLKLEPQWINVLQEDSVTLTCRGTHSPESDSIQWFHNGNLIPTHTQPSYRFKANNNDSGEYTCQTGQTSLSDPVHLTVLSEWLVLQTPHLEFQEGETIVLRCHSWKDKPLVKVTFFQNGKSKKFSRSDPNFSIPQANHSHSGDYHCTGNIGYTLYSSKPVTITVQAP

FcgRIa [2] = target: T2, FcgRIa (human, UniProt P12314); assay: SPR
T2 chain: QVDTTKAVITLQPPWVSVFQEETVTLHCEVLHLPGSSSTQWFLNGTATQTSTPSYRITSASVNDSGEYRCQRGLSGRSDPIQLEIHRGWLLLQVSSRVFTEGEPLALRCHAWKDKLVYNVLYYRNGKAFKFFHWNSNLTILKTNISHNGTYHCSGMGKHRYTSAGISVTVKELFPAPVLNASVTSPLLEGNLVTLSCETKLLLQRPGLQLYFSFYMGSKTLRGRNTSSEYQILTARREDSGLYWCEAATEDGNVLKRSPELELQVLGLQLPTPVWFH

FcgRIIaR [3] = target: T3, FcgRIIaR (human, UniProt P12318); assay: SPR
T3 chain: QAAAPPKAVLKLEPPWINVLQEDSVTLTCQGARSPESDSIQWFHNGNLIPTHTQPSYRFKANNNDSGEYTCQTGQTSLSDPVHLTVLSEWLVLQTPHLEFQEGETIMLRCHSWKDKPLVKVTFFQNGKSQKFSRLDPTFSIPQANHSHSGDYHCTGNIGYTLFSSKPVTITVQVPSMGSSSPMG

FcgRIIIaV [4] = target: T4, FcgRIIIaV (human, UniProt P08637); assay: SPR
T4 sequence (P08637 17-208 F176V): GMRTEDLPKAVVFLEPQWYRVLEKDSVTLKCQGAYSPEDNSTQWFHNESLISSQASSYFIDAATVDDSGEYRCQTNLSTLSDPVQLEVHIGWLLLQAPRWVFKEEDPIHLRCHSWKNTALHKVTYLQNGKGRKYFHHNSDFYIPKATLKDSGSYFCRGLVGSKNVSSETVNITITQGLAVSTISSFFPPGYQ

FcgRIa [5] = target: T2, FcgRIa; assay: SPR
FcgRIa [6] = target: T2, FcgRIa; assay: SPR
FcgRIIIaV [7] = target: T4, FcgRIIIaV; assay: SPR; remark: listed apart in the source
FcgRIIaH = target: T5, FcgRIIaH (human, UniProt P12318); assay: SPR
T5 chain: T3 chain with R134H

FcgRIIb [8] = target: T1, FcgRIIb; assay: SPR
FcgRIIaR [9] = target: T3, FcgRIIaR; assay: SPR
FcgRIIb [10] = target: T1, FcgRIIb; assay: SPR
FcgRIIaR [11] = target: T3, FcgRIIaR; assay: SPR
FcgRIIaR [12] = target: T3, FcgRIIaR; assay: SPR
FcgRIa [13] = target: T2, FcgRIa; assay: SPR
FcgRIIb [14] = target: T1, FcgRIIb; assay: SPR
human FcRn = human FcRn (human, UniProt P55899); assay: SPR, pH 6.0, 25C

B2: IL6R-BP253/IL6R-L (antibody)
chain 1: QVQLQESGPGLVKPSETLSLTCAVSGHSISHDHAWSWVRQPPGEGLEWIGFISYSGITNYNPSLQGRVTISRDNSKNTLYLQMNSLRAEDTAVYYCARSLARTTAMDYWGEGTLVTVSSASTKGPSVFPLAPSSKSTSGGTAALGCLVKDYFPEPVTVSWNSGALTSGVHTFPAVLQSSGLYSLSSVVTVPSSSLGTQTYICNVNHKPSNTKVDKKVEPKSCDKTHTCPPCPAPELLGGPSVFLFPPKPKDTLMISRTPEVTCVVVDVEHEDPEVKFNWYVDGVEVHNAKTKPREEQYNSTYRVVSVLTVLHQDWLNGKEYKCKVSNKAFPAPIEKTISKAKGQPREPQVYTLPPSRDELTKNQVSLTCLVKGFYPSDIAVEWESNGQPENNYKTTPPVLDSDGSFFLYSKLTVDKSRWQQGNVFSCSVMHEALHNHYTQESLSLSP
chain 2: not shown
Kd (FcgRIIIaV [4]): 400 nM
Kd (FcgRIa [5]): 0.05 nM
Kd (FcgRIa [6]): 0.067 nM
Kd (FcgRIIIaV [7]): 3600 nM
Kd (FcgRIIaH): 860 nM
Kd (FcgRIIb [8]): 11 nM
Kd (FcgRIIaR [9]): 2.3 nM
Kd (FcgRIIb [10]): 8.9 nM

B3: IL6R-BP223/IL6R-L (antibody)
chain 1: B2 chain 1 with L236Y, G239D, P240D, E269S, H270D, P273G, K328A, F330L, A332R
chain 2: not shown
Kd (FcgRIIaR [11]): 600 nM

B4: IL6R-BP230/IL6R-L (antibody)
chain 1: B2 chain 1 with E235D, G239D, P240D, E269S, H270D, P273G, Y298D, F330L, A332R
chain 2: not shown
Kd (FcgRIIaR [12]): 490 nM
Kd (FcgRIa [13]): 10 nM
Kd (FcgRIIb [14]): 18 nM

B5: Fv4-P587-LS (antibody)
chain 1: B2 chain 1 with E235D, P240D, V266I, E269A, H270E, P273G, F330L, M430L, N436S, E441K
chain 2: DIQMTQSPSSLSASVGDSVTITCQASTDISSHLNWYQQKPGKAPELLIYYGSHLLSGVPSRFSGSGSGTDFTFTISSLEAEDAATYYCGQGNRLPYTFGQGTKVEIERTVAAPSVFIFPPSDEQLKSGTASVVCLLNNFYPREAKVQWKVDNALQSGNSQESVTEQDSKDSTYSLSSTLTLSKADYEKHKVYACEVTHQGLSSPVTKSFNRGEC
Kd (human FcRn): 120 nM

Further lines, results first:

Kd (FcgRIIb [1]): 35 nM
Kd (FcgRIa [2]): 7.3 nM
Kd (FcgRIIaR [3]): 800 nM
B1: IL6R-BP471/IL6R-L (antibody)
chain 1: B2 chain 1 with E235D, G239D, P240D, E269S, H270D, P273G, Y298D, F330L, P331S, A332R
chain 2: not shown

Kd (FcgRIIb [1]): 19 nM
Kd (FcgRIa [2]): 7.7 nM
Kd (FcgRIIaR [3]): 540 nM
B6: IL6R-BP478/IL6R-L (antibody)
chain 1: QVQLQESGPGLVKPSETLSLTCAVSGHSISHDHAWSWVRQPPGEGLEWIGFISYSGITNYNPSLQGRVTISRDNSKNTLYLQMNSLRAEDTAVYYCARSLARTTAMDYWGEGTLVTVSSASTKGPSVFPLAPCSRSTSESTAALGCLVKDYFPEPVTVSWNSGALTSGVHTFPAVLQSSGLYSLSSVVTVPSSSLGTKTYTCNVDHKPSNTKVDKRVESKYGPPCPPCPAPDLLGDDSVFLFPPKPKDTLMISRTPEVTCVVVDVSDEDGEVKFNWYVDGVEVHNAKTKPREEQDNSTYRVVSVLTVLHQDWLNGKEYKCKVSNKALPRPIEKTISKAKGQPREPQVYTLPPSRDELTKNQVSLTCLVKGFYPSDIAVEWESNGQPENNYKTTPPVLDSDGSFFLYSKLTVDKSRWQQGNVFSCSVMHEALHNHYTQESLSLSP
chain 2: not shown
